Assay results as given in patent US20150266963A1 (ARGEN X B V, published 2015).

How the values were obtained:
[1] = target: T1, human CD70 expressed on the surface of cells (human, UniProt P32970 1-193); assay: FACS MFI at 37 C, MHHPREB1 cells; reference SGN70
T1 construct: whole, on cells; also called cell surface expressed CD70; CD70 on cells
T1 sequence (looked up): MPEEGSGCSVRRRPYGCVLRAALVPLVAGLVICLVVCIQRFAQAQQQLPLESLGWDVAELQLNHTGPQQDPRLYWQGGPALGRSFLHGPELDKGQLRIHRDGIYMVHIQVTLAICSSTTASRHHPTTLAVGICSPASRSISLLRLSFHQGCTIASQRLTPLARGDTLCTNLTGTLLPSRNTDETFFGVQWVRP
Method: (§1) Several cancer cell lines were tested by FACS analysis for binding of ARGX-110 and SGN70 (described in US2010/0129362) at saturating mAb concentrations (at least 2 μg/ml). This was either done at 4° C. (1 hour incubation of cells with mAbs) or at 37° C. (15 minutes incubation of cells with mAbs). Binding was detected using anti-hIgG1-Fc-FITC (AF006, Binding Site) or anti-hIgG1-Fc-PE antibody (eBioscience, 12-4998). Fluorescence was measured using a flow cytometer.

[2] = target: T2, cynomolgus monkey CD70 on HSC-F cells (cynomolgus monkey, UniProt A0A2K5WTU9 1-190); assay: flow cytometry on cynomolgus HSC-F cells, goat anti human IgG1 FITC [panel cynomolgus monkey]
T2 construct: whole, on cells; also called cynomolgus CD70
T2 sequence: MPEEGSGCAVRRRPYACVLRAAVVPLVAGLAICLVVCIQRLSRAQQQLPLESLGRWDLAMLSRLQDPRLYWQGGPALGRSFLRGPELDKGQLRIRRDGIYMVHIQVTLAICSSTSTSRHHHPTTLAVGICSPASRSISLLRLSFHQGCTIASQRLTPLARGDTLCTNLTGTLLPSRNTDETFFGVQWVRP

[3] = target: T3, recombinant human CD70 (Flag-TNC-CD70) (human, UniProt P32970 39-193); assay: blocking ELISA; Flag-TNC-CD70 captured by anti-FLAG M2; competitor CD27-Fc 6.5 nM
T3 construct: extracellular domain; Captured by anti-Flag mAb in ELISA; as 'recombinant human CD70' immobilised on Biacore CM5 chips; TNC is for trimerisation; also called recombinant CD70; human recombinant CD70; not shown: Flag tag and TNC trimerisation domain
T3 sequence (looked up): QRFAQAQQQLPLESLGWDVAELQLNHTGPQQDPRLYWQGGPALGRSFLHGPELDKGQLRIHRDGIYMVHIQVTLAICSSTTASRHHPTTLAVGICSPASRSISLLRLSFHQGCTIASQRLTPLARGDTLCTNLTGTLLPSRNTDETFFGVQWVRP
Method: In this assay, a microtiter plate (Nunc Maxisorb) was first coated with 100 μl anti-FLAG M2 monoclonal antibody (Sigma Aldrich, F3165) at 1250-fold dilution in PBS (to achieve a final concentration of approximately 3.5 μg/ml) overnight at 4° C. The plate was washed once with PBS-Tween and incubated at RT for 2 hours with 300 μl PBS-1% casein. The plate was washed a further three times with PBS-Tween. 100 μl of 5 ng/ml (80 pM) Flag-TNC-CD70 (The Journal of Immunology, 2009, 183: 1851-1861) diluted in PBS-0.1% casein was added to the plate and incubated at RT for 1 hour while shaking. The plate was washed five times with PBS-Tween. The CD70 mAb to be tested was added to the plate; various concentrations were achieved by diluting the stock antibody solution in PBS-0.1% casein. Immediately thereafter, 50 μl of 1 μg/ml (final concentration 6.5 nM) recombinant human CD27 Fc chimera (R&D systems 382-CD, MW=46.5 kDa) was added, and incubated at RT for 1 hour while shaking. The plate was washed five times with PBS Tween. 100 μl of biotinylated anti-CD27 (eBioscience 13-0271), diluted 500-fold in PBS-0.1% casein, was added, and the plate incubated at RT for a further hour, while shaking. The plate was washed five times with PBS Tween. […] 100 μl TMB was added to the plate and the OD at 620 nm was measured. […]

[4] = target: T1, human CD70 expressed on the surface of …; assay: FACS MFI at 37 C, MKN-45 cells; reference SGN70
Method: as §1

[5] = target: T1, human CD70 expressed on the surface of …; assay: FACS MFI at 37 C, A498 cells; reference SGN70
Method: as §1

[6] = target: T1, human CD70 expressed on the surface of …; assay: flow cytometry on U266 cells, 1 h at 4 °C, anti-hIgG1-Fc-FITC or anti-hIgG-Fc-PE [panel U266]
Method: […] This was either done at 4° C. (1 hour incubation of cells with mAbs) or at 37° C. (15 minutes incubation of cells with mAbs). Binding was detected using anti-hIgG1-Fc-FITC (AF006, Binding Site) or anti-hIgG1-Fc-PE antibody (eBioscience, 12-4998). Fluorescence was measured using a flow cytometer.

[7] = target: T4, rhesus recombinant CD70 (FLAG-TNC-rhesus CD70) (rhesus); assay: blocking ELISA; rhesus Flag-TNC-CD70; competitor CD27-Fc
T4 construct: also called rhesus Flag-TNC-CD70

[8] = target: T1, human CD70 expressed on the surface of …; assay: FACS MFI at 37 C, EBC-1 cells; reference SGN70
Method: as §1

[9] = target: T1, human CD70 expressed on the surface of …; assay: FACS MFI at 37 C, Mino cells; reference SGN70
Method: as §1

[10] = target: T1, human CD70 expressed on the surface of …; assay: FACS MFI at 37 C, Raji cells; reference SGN70
Method: as §1

[11] = target: T1, human CD70 expressed on the surface of …; assay: FACS MFI at 37 C, L428 cells; reference SGN70
Method: as §1

B1: ARGX-110 (non-fucosylated 41D12 human IgG1) (antibody, V domains shown)
VH: EVQLVESGGGLVQPGGSLRLSCAASGFTFSVYYMNWVRQAPGKGLEWVSDINNEGGTTYYADSVKGRFTISRDNSKNSLYLQMNSLRAEDTAVYYCARDAGYSNHVPIFDSWGQGTLVTVSS
VL: QAVVTQEPSLTVSPGGTVTLTCGLKSGSVTSDNFPTWYQQTPGQAPRLLIYNTNTRHSGVPDRFSGSILGNKAALTITGAQADDEAEYFCALFISNPSVEFGGGTQLTVLG
notes: also called 41D12 (ARGX-110)
B1 was tested, and the “Signal in FACS of ARGX-110/signal in FACS of SGN70” value (shortened to “Signal in FACS of ARGX-110/signal”) [1] was 1.2 ratio, the “EC50 (read off the curve)” value [2] was ~0.08 µg/mL and the IC50 [3] was 0.067 µg/mL. For the same binder, the “Signal in FACS of ARGX-110/signal” value [4] was 10.6 ratio, the “Signal in FACS of ARGX-110/signal” value [5] was 1 ratio and the “EC50 (read off the curve)” value [6] was ~0.1 µg/mL. The IC50 [7] was 0.075 µg/mL, the “Signal in FACS of ARGX-110/signal” value [8] was 8.9 ratio and the “Signal in FACS of ARGX-110/signal” value [9] was 1 ratio. For the same binder, the “Signal in FACS of ARGX-110/signal” value [10] was 1.2 ratio and the “Signal in FACS of ARGX-110/signal” value [11] was 1.4 ratio.
